From patent EP2481750A1 (Mayo Foundation for Medical Education and Research, dated 2012)

Biological target: T1, human B7-DC (human, UniProt Q9BQ51 20-273)
T1 construct: whole, on cells; also called hB7.DC; human B7-DC orthologue
T1 sequence (looked up): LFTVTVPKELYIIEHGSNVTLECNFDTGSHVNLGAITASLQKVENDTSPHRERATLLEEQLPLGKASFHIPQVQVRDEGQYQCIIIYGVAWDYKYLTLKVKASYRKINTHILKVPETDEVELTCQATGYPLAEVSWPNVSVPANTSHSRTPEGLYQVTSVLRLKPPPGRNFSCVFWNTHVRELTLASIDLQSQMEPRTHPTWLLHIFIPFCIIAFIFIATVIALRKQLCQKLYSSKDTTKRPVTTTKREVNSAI
Test: flow cytometry on Ltk cells transiently transfected with human B7-DC

binding result: binds
B1: sHIgM12 (pentameric human monoclonal IgM/kappa antibody, B7-DC cross-linking antibody) (antibody)
heavy: QVQLQESGPGLLKPSETLSLTCTVSGGSVSLYYWSWIRQSPGKEPEWIGYIYSSGSTDYNPSLRSRVTISLDTSNNRFSLNLRSVTAADTAVYWCARSASIRGWFDPWGQGTLVTVSSGSASAPTLFPLVSCENSPSDTSSVAVGCLAQDFLPDSITFSWKYKNNSDISSTRGFPSVLRGGKYAATSQVLLPSKDVMQGTDEHVVCKVQHPNGNKEKNVPLPVIAELPPKVSVFVPPRDGFFGNPRKSKLICQATGFSPRQIQVSWLREGKQVGSGVTTDQVQAEAKESGPTTYKVTSTLTIKESDWLSQSMFTCRVDHRGLTFQQNASSMCVPDQDTAIRVFAIPPSFASIFLTKSTKLTCLVTDLTTYDSVTISWTRQNGEAVKTHTNISESHPNATFSAVGEASICEDDWNSGERFTCTVTHTDLPSPLKQTISRPKGVALHRPDVYLLPPAREQLNLRESATITCLVTGFSPADVFVQWMQRGQPLSPEKYVTSAPMPEPQAPGRYFAHSILTVSEEEWNTGETYTCVVAHEALPNRVTERTVDKSTGKPTLYNVSLVMSDTAGTCY
light: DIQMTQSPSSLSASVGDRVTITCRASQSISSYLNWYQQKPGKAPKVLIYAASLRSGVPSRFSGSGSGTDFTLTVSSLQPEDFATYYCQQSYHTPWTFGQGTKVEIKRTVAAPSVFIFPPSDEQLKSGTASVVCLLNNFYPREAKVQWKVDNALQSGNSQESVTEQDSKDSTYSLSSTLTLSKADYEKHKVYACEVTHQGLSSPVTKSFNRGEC
notes: also called intact sHIgM12; pentameric sHIgM12
